From PMC314469, “Protein Interaction Networks by Proteome Peptide Scanning” (PLoS Biology, 2004)

T1: amphyphisin SH3 (AMPH_HUMAN), P49418
T1 chain: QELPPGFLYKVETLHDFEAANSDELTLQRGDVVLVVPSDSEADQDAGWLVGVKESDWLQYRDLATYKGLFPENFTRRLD

B1: Q16772 198-212 (peptide)
chain: QPGSPRKPPADAKA
B2: Q9P0Y7 137-150 (peptide)
chain: QKDVIRRPTFVPQW
B3: O75116 1371-1384 (peptide)
chain: QNQSIRRPSRQLAP
B4: BAC05814 18-32 (peptide)
chain: QSSPPQRPPAPASP
B5: Q16360 104-117 (peptide)
chain: QQPLPRRPGHDDGQ
B6: Q9BRZ8 226-240 (peptide)
chain: QILSPPRPPTSPSF
B7: P08263 197-211 (peptide)
chain: QPGSPRKPPMDEKS
B8: Q07092 192-205 (peptide)
chain: QPLGPRRPMRPVGH
B9: Q96RY6 139-152 (peptide)
chain: QQFRLRRPSGITWP
B10: Q96KZ1 72-86 (peptide)
chain: QPDGPARPPGMAPS
B11: O60275 1399-1412 (peptide)
chain: QHYTLGRPGRAPRR
B12: Q9C0A3 966-979 (peptide)
chain: ATAFLQRPSRAGSL
B13: Q9Y6V0 366-380 (peptide)
chain: QQPGPAKPPTQQVG
B14: Q8WTU5 20-34 (peptide)
chain: QRQRPPRPPPRGTP
B15: Q9C0B5 150-163 (peptide)
chain: ATSRFYRPPRSSHS
B16: Q9H5W5 105-119 (peptide)
chain: QKTRPIKPPPDSQE
B17: Q15215 74-88 (peptide)
chain: QPQGPPRPPQGDKP
B18: Q96S15 319-332 (peptide)
chain: QLWDIRRPDRSERM
B19: Q9NYL5 22-35 (peptide)
chain: QRKNLRRPPSIKGW
B20: O43163 368-382 (peptide)
chain: QLSSPIRPPKYYTY
B21: Q9BZS0 76-90 (peptide)
chain: QQKPPKRPPIEASV
B22: Q9H6Q4 405-418 (peptide)
chain: QLQAPDRPSRELLQ
B23: P04280 312-326 (peptide)
chain: QPQGPPRPPQGGRP
B24: Q9ULC8 29-42 (peptide)
chain: ATSHFYRPPRSSHS
B25: Q9Y6V0 327-341 (peptide)
chain: QPLGPAKPPAQQTG
B26: Q96NX7 585-598 (peptide)
chain: QLVILRRPERPMED
B27: Q9UII6 5-18 (peptide)
chain: QKQDLRRPKIHGAV
B28: Q13873 748-761 (peptide)
chain: QQNLPKRPTSLPLN
B29: Q9BZE0 329-343 (peptide)
chain: QLRPPPKPPLPAPD
B30: P15976 237-250 (peptide)
chain: QNRPLIRPKKRLIV
B31: Q9Y477 106-119 (peptide)
chain: QPALLKRPQLELYV
B32: Q9UPY6 301-315 (peptide)
chain: QQPPPRRPPQAPEG
B33: Q96JF9 85-98 (peptide)
chain: QKFSLRRPLQTAMI
B34: Q9H6H6 405-418 (peptide)
chain: ATDAPSRPGRLAGR
B35: Q9BWY5 227-240 (peptide)
chain: QLFTPNRPKKREIY
B36: Q9Y403 46-59 (peptide)
chain: QIRILKRPTSNGVV
B37: Q9UBH6 665-678 (peptide)
chain: QSISLRRPRLASQS
B38: Q9Y381 268-281 (peptide)
chain: QPVNPPRPFKHSER
B39: O43426 1101-1114 (peptide)
chain: QPLEPKRPPPPRPV
B40: O15350 392-405 (peptide)
chain: QQQLLQRPPRDAQQ
B41: Q9H8J7 161-174 (peptide)
chain: QPQSLRRPLWLSHS
B42: P33897 430-443 (peptide)
chain: QRSHFKRPRELEDA

Target: T1, amphyphisin SH3 (AMPH_HUMAN), P49418
Assay: SPOT array

normalised SPOT signal, Boehringer light units (BLU); mean over the file's lines of this peptide | Binder
36.6 | B1
22.8 | B2
1460 | B3
49.9 | B4
36.8 | B5
75.8 | B6
59.8 | B7
10200 | B8
61.5 | B9
63.5 | B10
565 | B11
15700 | B12
62.4 | B13
8800 | B14
5620 | B15
42.1 | B16
84.1 | B17
2300 | B18
25.3 | B19
227 | B20
57.3 | B21

normalised SPOT signal, Boehringer light units (BLU); mean over the file's lines of this peptide | Binder
3320 | B22
58.6 | B23
8300 | B24
52.7 | B25
31.8 | B26
56.3 | B27
47.8 | B28
825 | B29
43.3 | B30
28.2 | B31
744 | B32
64.3 | B33
5530 | B34
165 | B35
6.4 | B36
56.1 | B37
275 | B38
28.6 | B39
3270 | B40
66.8 | B41
64.1 | B42

target: endophilin SH3 (SH3G2_HUMAN), Q99962; assay: SPOT array

normalised SPOT signal, Boehringer light units (BLU); mean over the file's lines of this peptide | Binder
46.1 | B1
91.5 | B2
665 | B3
4000 | B4
106 | B5
4830 | B6
68.3 | B7
2870 | B8
116 | B9
39.7 | B10
73 | B11
298 | B12
30.3 | B13
11000 | B14
400 | B15
36.3 | B16
94.4 | B17
692 | B18
57.6 | B19
2940 | B20
822 | B21

normalised SPOT signal, Boehringer light units (BLU); mean over the file's lines of this peptide | Binder
377 | B22
210 | B23
218 | B24
63.4 | B25
16.7 | B26
85.7 | B27
520 | B28
4110 | B29
1510 | B30
52.6 | B31
430 | B32
73.5 | B33
147 | B34
698 | B35
148 | B36
208 | B37
1250 | B38
124 | B39
106 | B40
1380 | B41
29.5 | B42
